Key:
[1] = target: T1, EGFR (form in the assay not stated) (human, UniProt P00533 25-645, limits assumed); assay: ELISA, NEM conjugate 500 nM
[2] = target: T1, EGFR (form in the assay not stated); assay: ELISA, NEM conjugate 100 nM
[3] = target: T1, EGFR (form in the assay not stated); assay: ELISA, NEM conjugate 10 nM

Binder | binding ratio vs parent P54AR4-83v2 [1] | binding ratio vs parent P54AR4-83v2 [2] | binding ratio vs parent P54AR4-83v2 [3]
P54AR4-83v2 P50C, NEM conjugate (designed binder, NEM on Cys 50, His-tagged) LPAPKNLVVSEVTEDSARLSWDDPWAFYESFLIQYQESEKVGEAIVLTVCGSERSYDLTGLKPGTEYTVSIYGVHNVYKDTNMRGLPLSAIFTT | 0.97 ratio | 1.05 ratio | 0.91 ratio
P54AR4-83v2 P63C, NEM conjugate (designed binder, NEM on Cys 63, His-tagged) LPAPKNLVVSEVTEDSARLSWDDPWAFYESFLIQYQESEKVGEAIVLTVPGSERSYDLTGLKCGTEYTVSIYGVHNVYKDTNMRGLPLSAIFTT | 0.92 ratio | 1.02 ratio | 0.95 ratio
P54AR4-83v2 R18C, NEM conjugate (designed binder, NEM on Cys 18, His-tagged) LPAPKNLVVSEVTEDSACLSWDDPWAFYESFLIQYQESEKVGEAIVLTVPGSERSYDLTGLKPGTEYTVSIYGVHNVYKDTNMRGLPLSAIFTT | 0.94 ratio | 1.05 ratio | 0.86 ratio
P54AR4-83v2 P87C, NEM conjugate (designed binder, NEM on Cys 87, His-tagged) LPAPKNLVVSEVTEDSARLSWDDPWAFYESFLIQYQESEKVGEAIVLTVPGSERSYDLTGLKPGTEYTVSIYGVHNVYKDTNMRGLCLSAIFTT | 0.91 ratio | 0.93 ratio | 0.73 ratio
P54AR4-83v2 Q34C, NEM conjugate (designed binder, NEM on Cys 34, His-tagged) LPAPKNLVVSEVTEDSARLSWDDPWAFYESFLICYQESEKVGEAIVLTVPGSERSYDLTGLKPGTEYTVSIYGVHNVYKDTNMRGLPLSAIFTT | 0.94 ratio | 1.03 ratio | 0.89 ratio
P54AR4-83v2 S38C, NEM conjugate (designed binder, NEM on Cys 38, His-tagged) LPAPKNLVVSEVTEDSARLSWDDPWAFYESFLIQYQECEKVGEAIVLTVPGSERSYDLTGLKPGTEYTVSIYGVHNVYKDTNMRGLPLSAIFTT | 0.82 ratio | 0.93 ratio | 0.8 ratio
P54AR4-83v2 S30C, NEM conjugate (designed binder, NEM on Cys 30, His-tagged) LPAPKNLVVSEVTEDSARLSWDDPWAFYECFLIQYQESEKVGEAIVLTVPGSERSYDLTGLKPGTEYTVSIYGVHNVYKDTNMRGLPLSAIFTT | 0.9 ratio | 1.02 ratio | 0.9 ratio
P54AR4-83v2 S10C, NEM conjugate (designed binder, NEM on Cys 10, His-tagged) LPAPKNLVVCEVTEDSARLSWDDPWAFYESFLIQYQESEKVGEAIVLTVPGSERSYDLTGLKPGTEYTVSIYGVHNVYKDTNMRGLPLSAIFTT | 0.96 ratio | 1.07 ratio | 0.83 ratio
P54AR4-83v2 S16C, NEM conjugate (designed binder, NEM on Cys 16, His-tagged) LPAPKNLVVSEVTEDCARLSWDDPWAFYESFLIQYQESEKVGEAIVLTVPGSERSYDLTGLKPGTEYTVSIYGVHNVYKDTNMRGLPLSAIFTT | 0.63 ratio | 1.05 ratio | 0.88 ratio
P54AR4-83v2 S20C, NEM conjugate (designed binder, NEM on Cys 20, His-tagged) LPAPKNLVVSEVTEDSARLCWDDPWAFYESFLIQYQESEKVGEAIVLTVPGSERSYDLTGLKPGTEYTVSIYGVHNVYKDTNMRGLPLSAIFTT | 0.91 ratio | 1.05 ratio | 0.81 ratio
P54AR4-83v2 R84C, NEM conjugate (designed binder, NEM on Cys 84, His-tagged) LPAPKNLVVSEVTEDSARLSWDDPWAFYESFLIQYQESEKVGEAIVLTVPGSERSYDLTGLKPGTEYTVSIYGVHNVYKDTNMCGLPLSAIFTT | 0.98 ratio | 1.04 ratio | 0.91 ratio
P54AR4-83v2 R54C, NEM conjugate (designed binder, NEM on Cys 54, His-tagged) LPAPKNLVVSEVTEDSARLSWDDPWAFYESFLIQYQESEKVGEAIVLTVPGSECSYDLTGLKPGTEYTVSIYGVHNVYKDTNMRGLPLSAIFTT | 0.93 ratio | 1.01 ratio | 0.89 ratio

— patent US20170362301A1 (Janssen / Centocor, published 2017)
